Assay results as given in patent US20200038462A1, “METHODS AND COMPOSITIONS OF OTC CONSTRUCTS AND VECTORS” (priority 2018, published 2020).

B1: CO6-1: hOTC construct; CO6 re-optimized by GeneArt, SEQ ID NO:6 (nucleic acid)
DNA: GTCGACGCCGCCACCATGCTGTTCAACCTGCGGATCCTGCTGAACAACGCCGCCTTCAGAAACGGCCACAACTTCATGGTCCGAAACTTCAGATGCGGCCAGCCTCTGCAGAACAAGGTGCAGCTGAAGGGCAGAGATCTGCTGACCCTGAAGAACTTCACCGGCGAAGAGATCAAATACATGCTGTGGCTGAGCGCCGACCTGAAGTTCCGGATTAAGCAGAAGGGCGAGTACCTGCCACTGCTGCAGGGAAAGTCTCTGGGCATGATCTTCGAGAAGCGGAGCACCAGAACCAGACTGAGCACCGAGACAGGCTTTGCCCTGCTCGGAGGACACCCCTGCTTTCTGACAACACAGGATATCCACCTGGGCGTGAACGAGAGCCTGACCGATACAGCCAGAGTGCTGAGCAGCATGGCTGATGCCGTGCTGGCCAGAGTGTACAAGCAGAGCGATCTGGACACCCTGGCCAAAGAGGCCAGCATTCCCATCATCAACGGCCTGAGCGACCTGTATCACCCCATCCAGATCCTGGCCGACTACCTGACACTGCAAGAGCACTACAGCAGCCTGAAGGGACTGACCCTGTCTTGGATCGGCGACGGCAACAACATCCTGCACTCTATTATGATGAGCGCCGCCAAGTTCGGAATGCACCTGCAGGCCGCTACACCCAAGGGCTATGAGCCTGATGCCAGCGTGACAAAGCTGGCCGAGCAGTACGCCAAAGAGAACGGCACAAAGCTGCTGCTGACCAACGATCCCCTGGAAGCTGCCCACGGCGGCAATGTGCTGATCACCGATACCTGGATCTCTATGGGCCAAGAGGAAGAGAAGAAGAAGCGGCTGCAGGCCTTCCAGGGCTACCAAGTGACAATGAAGACCGCCAAGGTGGCCGCCAGCGATTGGACCTTTCTGCACTGCCTGCCTCGGAAGCCTGAAGAGGTGGACGACGAGGTGTTCTACAGCCCTAGAAGCCTGGTGTTCCCCGAGGCCGAGAACAGAAAGTGGACCATCATGGCTGTGATGGTGTCCCTGCTGACCGACTACTCTCCCCAGCTGCAGAAGCCCAAGTTCTGATAAGAATTC
B2: CO9-1: hOTC construct; CO9 re-optimized by GeneArt, SEQ ID NO:9 (nucleic acid)
DNA: GTCGACGCCGCCACCATGCTGTTTAATCTGAGAATCCTGCTGAACAATGCTGCTTTCCGCAATGGGCACAACTTTATGGTCCGAAACTTCCGATGTGGACAGCCTCTGCAGAACAAGGTGCAGCTGAAGGGCCGGGACCTGCTGACCCTGAAGAATTTCACAGGCGAGGAGATCAAATACATGCTGTGGCTGAGCGCCGATCTGAAGTTTAGGATCAAGCAGAAGGGCGAGTATCTGCCACTGCTGCAGGGCAAGTCCCTGGGCATGATCTTCGAGAAGCGGAGCACCCGGACAAGACTGAGCACCGAGACAGGATTCGCACTGCTGGGAGGACACCCATGCTTTCTGACAACACAGGACATCCACCTGGGCGTGAACGAGTCTCTGACCGACACAGCACGGGTGCTGAGCTCCATGGCAGATGCCGTGCTGGCCAGAGTGTACAAGCAGAGCGACCTGGATACCCTGGCCAAGGAGGCCTCCATCCCCATCATCAATGGCCTGTCTGACCTGTATCACCCAATCCAGATCCTGGCCGATTACCTGACCCTGCAGGAGCACTATTCTAGCCTGAAGGGCCTGACACTGAGCTGGATCGGCGACGGCAACAATATCCTGCACAGCATCATGATGTCCGCCGCCAAGTTTGGAATGCACCTGCAGGCAGCAACCCCAAAGGGATACGAGCCCGATGCCTCCGTGACAAAGCTGGCCGAGCAGTATGCCAAGGAGAACGGCACCAAGCTGCTGCTGACAAATGACCCACTGGAGGCAGCACACGGAGGAAACGTGCTGATCACCGATACATGGATCTCTATGGGCCAGGAGGAGGAGAAGAAGAAGCGGCTGCAGGCCTTCCAGGGCTACCAGGTGACCATGAAGACAGCCAAGGTGGCCGCCTCTGATTGGACCTTTCTGCACTGTCTGCCCCGGAAGCCTGAGGAGGTGGACGATGAGGTGTTCTATTCCCCTCGGAGCCTGGTGTTCCCAGAGGCAGAGAATCGCAAGTGGACAATCATGGCCGTGATGGTCTCCCTGCTGACTGACTACTCCCCACAGCTGCAGAAGCCCAAGTTTTGATAAGAATTC
B3: CO9-2: hOTC construct; CO9 re-optimized by IDT, SEQ ID NO:10 (nucleic acid)
DNA: GTCGACGCCGCCACCATGCTCTTCAATCTCCGAATACTCCTGAATAATGCGGCATTCAGAAATGGGCACAATTTTATGGTGCGAAATTTTCGATGTGGGCAGCCCTTGCAAAATAAAGTACAACTTAAAGGCAGAGATCTTCTTACGCTCAAAAACTTTACCGGCGAAGAGATTAAGTATATGTTGTGGCTGTCTGCTGACCTTAAATTCCGAATAAAACAGAAAGGCGAATACCTTCCGCTCCTCCAAGGGAAATCTCTTGGGATGATTTTCGAGAAGAGATCTACGCGCACGCGGCTTTCAACGGAAACTGGATTCGCACTCTTGGGCGGCCACCCATGTTTTCTGACTACTCAAGATATTCACTTGGGAGTAAATGAGTCACTTACTGACACGGCAAGAGTGCTCTCTAGCATGGCTGATGCAGTGCTGGCTAGAGTCTATAAACAATCCGACCTGGATACACTCGCCAAGGAAGCTTCAATACCAATAATCAACGGGTTGTCTGACTTGTACCACCCTATCCAAATCTTGGCCGATTATTTGACACTCCAGGAACACTACTCAAGTCTGAAGGGACTTACGCTTAGCTGGATAGGTGATGGTAACAACATCCTTCATAGCATTATGATGTCAGCCGCCAAATTCGGCATGCATCTGCAAGCAGCGACTCCCAAGGGCTATGAGCCTGATGCCTCAGTCACCAAACTGGCGGAGCAGTACGCTAAAGAGAATGGGACGAAGCTTTTGCTGACGAACGATCCCCTGGAGGCGGCTCACGGGGGAAATGTGCTTATCACGGATACCTGGATAAGTATGGGGCAGGAGGAAGAAAAAAAAAAGCGATTGCAAGCCTTTCAAGGTTACCAGGTTACAATGAAAACTGCGAAAGTCGCCGCATCTGACTGGACTTTTCTGCACTGTCTTCCGAGAAAGCCGGAAGAGGTGGACGACGAAGTGTTCTACTCTCCGCGCTCTCTCGTGTTTCCTGAAGCAGAGAACCGAAAGTGGACCATAATGGCGGTAATGGTCAGCCTCTTGACTGATTATTCCCCTCAGCTGCAGAAGCCAAAGTTTTGATAAGAATTC

Test system: HUH7 hepatocellular carcinoma cell line
Experiment: OTC protein expression in transfected HUH7 cells, Western blot
Type: cell-based, human
Settings: FIGS. 14-15
Description: The wt-hOTC was codon-optimized (CO) with different algorithms. The optimization process is aimed at improving translation and stability of the OTC mRNA by changing the nucleotide sequence while keeping the amino acid primary sequence unvaried. The wild-type OTC cDNA sequence and the codon-optimized (CO) LW4 sequence from WO 2015/138357 patent A2 (Wang L., Wilson J. M.) were also synthesized, to be used as comparison control (CO1). The nucleotide sequence of the different CO cDNAs differs with a range of 30-20% from the WT cDNA sequence. The vectors were then packaged into the AAV8 serotype and used to transduce Huh7 cells. Huh7 cells, co-transfected with the OTC constructs and the pGG2-eGFP plasmid (to normalize for transfection efficiency), were used to generate total RNA and proteins. mRNA, protein, and activity levels were analyzed using qRT-PCR and Western blotting.
The human hepatocellular carcinoma cell line HUH7 was used to evaluate the expression levels of AAV8-hOTC-CO constructs. The AAV8-hOTC-CO1 (C01), AAV8-hOTC-CO2 (CO2), AAV8-hOTC-CO3 (CO3), AAV8-hOTC-006 (CO6), AAV8-hOTC-CO7 (CO7), AAV8-hOTC-009 (CO9) construct plasmids, together with a pGFP plasmid as an internal control, were transiently co-transfected in HUH7 cells with Lipofectamine (Lipofectamine 2000, Thermo Fisher Scientific). Twenty-four hours post-transfection, total protein lysates were prepared and analyzed for OTC expression by Western blot analysis.

Molecule	OTC protein expression levels compared to hOTC-wt (in words)
B1	significantly reduced
B2	significantly reduced
B3	significantly reduced
